Experiment [1] addresses hemagglutinin of H3N2 Hong Kong/68 (influenza A virus H3N2). The experiment is described as follows: Biolayer Interferometry (ForteBio Octet), kinetic analysis, apparent affinity.
Experiment [2] deals with hemagglutinin H3 A/Perth/16/2009 (influenza A virus H3). Described as above.

C05 CDR1 variant Y31L (antibody): the Kd in experiment [1] is 1400 nM; in experiment [2], 560 nM.

For the substance C05 CDR1 variant Y31A (antibody), the Kd was 640 nM in experiment [1] and 550 nM in experiment [2].

Take C05 CDR1 variant G27c-A (antibody): the Kd in experiment [1] was 450 nM; in experiment [2], 33 nM.

In the case of C05 CDR1 variant del(FGEST) (antibody), the Kd turned out to be 690 nM in experiment [1] and 1300 nM in experiment [2].

Consider C05 CDR1 variant F27b-A (antibody), for which the Kd in experiment [1] came out at 610 nM; in experiment [2], 460 nM.

With C05 CDR1 variant E27d-A (antibody), the Kd in experiment [1] came to 540 nM; in experiment [2], 28 nM.

As to C05 CDR1 variant Y31F (antibody), the values for the Kd in experiment [1] and in experiment [2] were 420 nM and 6.8 nM, respectively.

Values taken from patent US20140199682A1.
